The results in this text go back to paper PMC11475020.

For this data set, the target named is T1, IscR-His (Caulobacter crescentus NA1000) (UniProt A0A0H3C7T4).
T1 sequence: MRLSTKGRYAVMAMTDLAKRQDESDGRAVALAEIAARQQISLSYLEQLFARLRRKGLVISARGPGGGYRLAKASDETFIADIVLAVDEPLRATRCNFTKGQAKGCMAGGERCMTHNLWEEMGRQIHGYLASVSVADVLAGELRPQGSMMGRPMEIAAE
Put plainly: EMSA. The conditions noted are these: 10 mM HEPES, 40 mM KCl, 1 mM MgCl2, 1 mM MnCl2, 5% glycerol, 0.1 mg/ml salmon sperm DNA, 500 ng probe, pH not stated, 30 min room temperature. (In general: In EMSA bound probe runs differently from free probe, usually more slowly.)

In the case of “AAACCACTCCCGGAATCACGCGCAGATCGGAAGGGACACACAGGTTCCGCCTCCGCGCCGCGTACCACCCTGAACGACTGGAGGGGGGCGACCGGCCGCTTCTTAGCGCCGCCGTCGACCAACGTCCATGTCACGTGCGGGGTCTTGGCGTGTTGAGAGCTGTTCTCATTAAGGATCTGGCGATTTCGCGCGGTGAGCGAACGCTGTTTTC (double strand) [acn regulatory region]”, the binding entry was “binds”.
